In PMC6309870:

T1: HA-CEBPD (C/EBP delta, NF-IL6beta) (UniProt P49716 1-269)
T1 sequence: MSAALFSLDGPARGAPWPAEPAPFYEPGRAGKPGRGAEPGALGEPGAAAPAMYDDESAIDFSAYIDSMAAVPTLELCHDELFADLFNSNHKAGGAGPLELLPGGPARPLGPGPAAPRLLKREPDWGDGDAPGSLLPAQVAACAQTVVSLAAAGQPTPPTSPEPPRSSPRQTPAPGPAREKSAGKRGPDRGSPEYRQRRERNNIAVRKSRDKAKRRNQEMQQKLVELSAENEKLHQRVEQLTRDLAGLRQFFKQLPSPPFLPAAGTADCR

B1: PTX3 promoter site 1 (dsDNA)
DNA 1: TTTAATATTGTGCAACTTCCAC
DNA 2: GTGGAAGTTGCACAATATTAAA
B2: PTX3 promoter site 5 (dsDNA)
DNA 1: TAAAGGGTTGTGAAATAATAAC
DNA 2: GTTATTATTTCACAACCCTTTA

Molecular target: T1, HA-CEBPD (C/EBP delta, NF-IL6beta)
Test: EMSA, supershift

| Binder | binding result |
| --- | --- |
| B1 | binds |
| B2 | binds |
